Experimental data: patent US7662384B2, “Use of anti-α5β1 antibodies to inhibit cancer cell proliferation” (Facet Biotech Corporation, priority 2004, dated 2010)

How the values were obtained:
[1] = target: T1, α5β1 integrin on the cell surface of CHL-1 (Homo sapiens, UniProt P05556+P08648); assay: FACS analysis of cancer cell line with IIA1; assay type: binding; details: CHL-1 (melanoma); IIA1 10 μg/ml; background MFI ~5
T1 construct: endogenous in cells
Description: (§1) Cells were removed with 5 mM EDTA in Tris-HCl (pH 8.0) and blocked by centrifugation in Hank's balanced salt solution containing 3% heat inactivated FBS, 1% normal goat serum (Sigma) and 1% BSA at 4° C. for 5 minutes. Cells were incubated for 30-60 minutes at 4° C. with the mouse anti-α5β1 antibody, IIA1 (10 μg/ml) in FACS buffer (PBS containing 0.1% BSA). Excess monoclonal antibody was removed by centrifugation and cells were washed two times with FACS buffer prior to resuspending in PE-anti-mouse IgG (H+ L) antibody (Southern Biotech, 1:400 dilution) for 30-60 minutes at 4° C. After washing cells were re-suspended in FACS buffer containing propidium iodide (1 μg/ml). Mean fluorescence intensity (MFI) was measured on a FACSCalibur (Becton Dickinson). Background MFI was ˜5.

[2] = target: T2, α5β1 integrin on the cell surface of NW231 (Homo sapiens, UniProt P05556+P08648); assay: FACS analysis of cancer cell line with IIA1; assay type: binding; details: NW231 (breast); IIA1 10 μg/ml; background MFI ~5
T2 construct: endogenous in cells
Description: as §1

[3] = target: T3, α5β1 integrin on the cell surface of DU145 (Homo sapiens, UniProt P05556+P08648); assay: FACS analysis of cancer cell line with IIA1; assay type: binding; details: DU145 (prostate); IIA1 10 μg/ml; background MFI ~5
T3 construct: endogenous in cells
Description: as §1

[4] = target: T4, α5β1 integrin on the cell surface of EKVX (Homo sapiens, UniProt P05556+P08648); assay: FACS analysis of cancer cell line with IIA1; assay type: binding; details: EKVX (lung); IIA1 10 μg/ml; background MFI ~5
T4 construct: endogenous in cells
Description: as §1

[5] = target: T5, α5β1 integrin on the cell surface of C8161 (Homo sapiens, UniProt P05556+P08648); assay: FACS analysis of cancer cell line with IIA1; assay type: binding; details: C8161 (melanoma); IIA1 10 μg/ml; background MFI ~5
T5 construct: endogenous in cells
Description: as §1

[6] = target: T6, α5β1 integrin on the cell surface of UACC-62 (Homo sapiens, UniProt P05556+P08648); assay: FACS analysis of cancer cell line with IIA1; assay type: binding; details: UACC-62 (melanoma); IIA1 10 μg/ml; background MFI ~5
T6 construct: endogenous in cells
Description: as §1

[7] = target: T7, α5β1 integrin on the cell surface of C32 (Homo sapiens, UniProt P05556+P08648); assay: FACS analysis of cancer cell line with IIA1; assay type: binding; details: C32 (melanoma); IIA1 10 μg/ml; background MFI ~5
T7 construct: endogenous in cells
Description: as §1

[8] = target: T8, α5β1 integrin on the cell surface of LOX (Homo sapiens, UniProt P05556+P08648); assay: FACS analysis of cancer cell line with IIA1; assay type: binding; details: LOX (melanoma); IIA1 10 μg/ml; background MFI ~5
T8 construct: endogenous in cells
Description: as §1

[9] = target: T9, α5β1 integrin on the cell surface of SN12C (Homo sapiens, UniProt P05556+P08648); assay: FACS analysis of cancer cell line with IIA1; assay type: binding; details: SN12C (renal); IIA1 10 μg/ml; background MFI ~5
T9 construct: endogenous in cells
Description: as §1

[10] = target: T10, α5β1 integrin on the cell surface of 786-0 (Homo sapiens, UniProt P05556+P08648); assay: FACS analysis of cancer cell line with IIA1; assay type: binding; details: 786-0 (renal); IIA1 10 μg/ml; background MFI ~5
T10 construct: endogenous in cells
Description: as §1

[11] = target: T11, α5β1 integrin on the cell surface of HT144 (Homo sapiens, UniProt P05556+P08648); assay: FACS analysis of cancer cell line with IIA1; assay type: binding; details: HT144 (melanoma); IIA1 10 μg/ml; background MFI ~5
T11 construct: endogenous in cells
Description: as §1

[12] = target: T12, α5β1 integrin on the cell surface of ES-2 (Homo sapiens, UniProt P05556+P08648); assay: FACS analysis of cancer cell line with IIA1; assay type: binding; details: ES-2 (ovarian); IIA1 10 μg/ml; background MFI ~5
T12 construct: endogenous in cells
Description: as §1

[13] = target: T13, α5β1 integrin on the cell surface of HT1376 (Homo sapiens, UniProt P05556+P08648); assay: FACS analysis of cancer cell line with IIA1; assay type: binding; details: HT1376 (bladder); IIA1 10 μg/ml; background MFI ~5
T13 construct: endogenous in cells
Description: as §1

[14] = target: T14, α5β1 integrin on the cell surface of A375 (Homo sapiens, UniProt P05556+P08648); assay: FACS analysis of cancer cell line with IIA1; assay type: binding; details: A375 (melanoma); IIA1 10 μg/ml; background MFI ~5
T14 construct: endogenous in cells
Description: as §1

NW231 = assay: M200 in vitro cell proliferation assay; assay type: cell-based, human; details: NW231 (breast)
Description: Cancer cell lines were plated at a density of 2500 cells/well in 96-well plates in IMDM with supplements in the presence or absence of 10% FBS. At the time of plating, cells were challenged with various concentrations M200 or a non-function blocking anti-α5 antibody, VC5. […] All growth studies were done at least 3 times in triplicate.

SW1990 = assay: M200 in vitro cell proliferation assay; assay type: cell-based; details: 4-day assay
Description: (§2) Cancer cell lines were plated at a density of 2500 cells/well in 96-well plates in IMDM with supplements in the presence or absence of 10% FBS. At the time of plating, cells were challenged with various concentrations M200 or a non-function blocking anti-α5 antibody, VC5. Four days later, cell viability was assessed by the CellTiter 96 AQueous Non-Radioactive Cell Proliferation Assay (Promega) according to the manufacturer's instructions. All growth studies were done at least 3 times in triplicate.

SW839 = assay: M200 in vitro cell proliferation assay; assay type: cell-based; details: SW839 (renal), 4-day assay
Description: as §2

ASPC-1 = assay: M200 in vitro cell proliferation assay; assay type: cell-based; details: ASPC-1 (pancreas), 4-day assay
Description: as §2

HT1376 = assay: M200 in vitro cell proliferation assay; assay type: cell-based; details: HT1376 (bladder), 4-day assay
Description: as §2

CAPAN-2 = assay: M200 in vitro cell proliferation assay; assay type: cell-based; details: CAPAN-2 (pancreas), 4-day assay
Description: as §2

786-0 = assay: M200 in vitro cell proliferation assay; assay type: cell-based; details: 786-0 (renal), 4-day assay
Description: as §2

T4 sequence (P08648 42-1049): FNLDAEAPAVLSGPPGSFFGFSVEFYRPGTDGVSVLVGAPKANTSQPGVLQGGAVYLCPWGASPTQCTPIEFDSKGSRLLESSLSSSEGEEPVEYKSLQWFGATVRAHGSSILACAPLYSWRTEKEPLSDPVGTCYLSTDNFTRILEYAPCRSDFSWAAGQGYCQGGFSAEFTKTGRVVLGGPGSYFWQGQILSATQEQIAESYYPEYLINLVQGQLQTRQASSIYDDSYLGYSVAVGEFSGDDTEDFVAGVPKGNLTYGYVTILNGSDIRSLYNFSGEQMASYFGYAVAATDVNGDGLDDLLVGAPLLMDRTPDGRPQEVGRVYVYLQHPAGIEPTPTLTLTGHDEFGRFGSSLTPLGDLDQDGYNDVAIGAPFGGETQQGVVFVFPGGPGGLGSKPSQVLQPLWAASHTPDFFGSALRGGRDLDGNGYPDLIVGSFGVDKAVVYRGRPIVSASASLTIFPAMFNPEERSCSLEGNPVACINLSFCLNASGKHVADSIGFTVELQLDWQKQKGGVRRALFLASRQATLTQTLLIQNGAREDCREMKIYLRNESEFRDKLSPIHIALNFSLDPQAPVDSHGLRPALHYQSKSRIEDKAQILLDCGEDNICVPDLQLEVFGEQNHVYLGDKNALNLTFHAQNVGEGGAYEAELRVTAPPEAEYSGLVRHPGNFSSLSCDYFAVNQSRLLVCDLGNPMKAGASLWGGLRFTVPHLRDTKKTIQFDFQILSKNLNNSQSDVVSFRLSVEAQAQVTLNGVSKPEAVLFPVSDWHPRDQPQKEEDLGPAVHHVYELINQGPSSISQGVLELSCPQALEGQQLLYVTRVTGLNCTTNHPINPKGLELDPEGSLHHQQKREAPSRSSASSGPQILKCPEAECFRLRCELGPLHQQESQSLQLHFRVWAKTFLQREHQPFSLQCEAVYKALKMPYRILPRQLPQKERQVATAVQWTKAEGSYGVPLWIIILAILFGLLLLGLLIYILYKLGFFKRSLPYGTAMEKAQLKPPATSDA
T4 sequence (P08648 895-1049 limits assumed): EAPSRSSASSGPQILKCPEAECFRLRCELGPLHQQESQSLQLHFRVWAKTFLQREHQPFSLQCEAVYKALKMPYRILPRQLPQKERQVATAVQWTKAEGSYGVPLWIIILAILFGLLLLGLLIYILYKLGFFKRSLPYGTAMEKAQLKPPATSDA
T4 sequence (P05556 21-798): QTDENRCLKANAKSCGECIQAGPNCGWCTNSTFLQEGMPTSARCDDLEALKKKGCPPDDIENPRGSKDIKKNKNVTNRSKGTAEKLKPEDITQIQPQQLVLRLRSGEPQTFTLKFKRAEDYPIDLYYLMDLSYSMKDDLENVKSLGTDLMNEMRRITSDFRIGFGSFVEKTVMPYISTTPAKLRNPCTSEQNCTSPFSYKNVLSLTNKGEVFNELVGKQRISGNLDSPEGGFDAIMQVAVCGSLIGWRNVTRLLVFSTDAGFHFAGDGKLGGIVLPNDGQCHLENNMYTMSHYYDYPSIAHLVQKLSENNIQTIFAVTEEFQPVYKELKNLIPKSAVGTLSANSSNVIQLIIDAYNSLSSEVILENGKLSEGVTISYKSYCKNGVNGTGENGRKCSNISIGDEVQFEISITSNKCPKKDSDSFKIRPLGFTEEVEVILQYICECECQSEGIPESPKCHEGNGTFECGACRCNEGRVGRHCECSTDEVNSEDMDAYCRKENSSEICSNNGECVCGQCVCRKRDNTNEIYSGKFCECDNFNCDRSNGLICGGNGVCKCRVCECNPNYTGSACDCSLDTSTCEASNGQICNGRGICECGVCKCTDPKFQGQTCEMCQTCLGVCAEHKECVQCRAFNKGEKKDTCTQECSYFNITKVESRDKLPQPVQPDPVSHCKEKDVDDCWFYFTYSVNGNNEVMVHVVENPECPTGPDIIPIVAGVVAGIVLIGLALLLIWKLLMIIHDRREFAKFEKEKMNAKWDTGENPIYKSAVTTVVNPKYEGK
T2 sequence (P08648 42-894 limits assumed): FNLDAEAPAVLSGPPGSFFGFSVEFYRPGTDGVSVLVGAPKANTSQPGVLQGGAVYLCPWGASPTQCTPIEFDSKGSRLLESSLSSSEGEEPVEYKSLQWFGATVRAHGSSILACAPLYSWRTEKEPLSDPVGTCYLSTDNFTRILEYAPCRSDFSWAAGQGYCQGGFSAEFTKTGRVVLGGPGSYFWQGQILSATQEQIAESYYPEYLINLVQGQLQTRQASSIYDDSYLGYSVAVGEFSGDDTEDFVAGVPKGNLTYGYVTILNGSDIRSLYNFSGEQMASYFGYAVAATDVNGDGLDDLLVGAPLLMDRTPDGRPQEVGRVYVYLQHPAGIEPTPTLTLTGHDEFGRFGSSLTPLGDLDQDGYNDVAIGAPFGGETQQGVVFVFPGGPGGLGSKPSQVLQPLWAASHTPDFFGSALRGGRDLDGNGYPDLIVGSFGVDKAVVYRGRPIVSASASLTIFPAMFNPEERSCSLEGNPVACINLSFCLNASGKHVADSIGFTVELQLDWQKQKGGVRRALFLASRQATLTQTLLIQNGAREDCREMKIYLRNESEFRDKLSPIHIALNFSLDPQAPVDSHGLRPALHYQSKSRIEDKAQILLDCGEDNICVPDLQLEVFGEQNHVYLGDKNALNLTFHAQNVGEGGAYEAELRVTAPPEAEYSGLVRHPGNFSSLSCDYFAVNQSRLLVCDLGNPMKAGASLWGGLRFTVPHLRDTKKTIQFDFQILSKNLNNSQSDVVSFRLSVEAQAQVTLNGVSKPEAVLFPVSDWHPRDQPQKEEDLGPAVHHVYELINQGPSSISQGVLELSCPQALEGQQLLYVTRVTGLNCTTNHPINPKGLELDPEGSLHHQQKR
T2 sequence (P08648 895-1049 limits assumed): as the sequence (P08648 895-1049 limits assumed) above
T2 sequence (P05556 21-798): as the sequence (P05556 21-798) above

B1: IIA1: parent mouse IgG1 class anti-α5β1 antibody shown to inhibit α5β1 integrin binding to fibronectin (antibody, V domains shown)
VH: MAVLGLLLCLVTFPSCVLSQVQLKESGPGLVAPSQSLSITCTISGFSLTDYGVHWVRQPPGKGLEWLVVIWSDGSSTYNSALKSRMTIRKDNSKSQVFLIMNSLQTDDSAMYYCARHGTYYGMTTTGDALDYWGQGTSVTVSS
VL: MDFQVQIFSFLLISASVIMSRGQIVLTQSPAIMSASLGERVTMTCTASSSVSSNYLHWYQQKPGSAPNLWIYSTSNLASGVPARFSGSGSGTSYSLTISSMEAEDAATYYCHQYLRSPPTFGGGTKLEIK
modifications: mus muscalus
α5β1 Surface Expression (MFI) [1]: 6.8 MFI
α5β1 Surface Expression (MFI) [2]: 132.2 MFI
α5β1 Surface Expression (MFI) [3]: 87.5 MFI
α5β1 Surface Expression (MFI) [4]: 36.7 MFI
α5β1 Surface Expression (MFI) [5]: 122 MFI
α5β1 Surface Expression (MFI) [6]: 88.5 MFI
α5β1 Surface Expression (MFI) [7]: 5.7 MFI
α5β1 Surface Expression (MFI) [8]: 261.6 MFI
α5β1 Surface Expression (MFI) [9]: 129.1 MFI
α5β1 Surface Expression (MFI) [10]: 144.4 MFI
α5β1 Surface Expression (MFI) [11]: 102.1 MFI
α5β1 Surface Expression (MFI) [12]: 132.8 MFI
α5β1 Surface Expression (MFI) [13]: 111.9 MFI
α5β1 Surface Expression (MFI) [14]: 156.1 MFI

B2: M200: chimeric IgG4 anti-α5β1 antibody derived from IIA1; generic name volociximab (antibody, V domains shown)
VH: B1 VH
VL: MDFQVQIFSFLLISASVIMSRGQIVLTQSPAIMSASLGERVTMTCTASSSVSSNYLHWYQQKPGSAPNLWIYSTSNLASGVPARFSGSGSGTSYSLTISSMEAEDAATYYCHQYLRSPPTFGGGTKLEIKDMSVDMSV
modifications: chimeric antibody
notes: chimeric IgG4 anti-α5β1 antibody derived from IIA1; generic name volociximab
% Growth Inhibition +Serum (NW231; 10% FBS, 4-day assay): 35%
% Growth Inhibition −Serum (NW231; absence of serum, 2-day rather than 4-day assay): 10^2%
% Growth Inhibition +Serum (SW1990; 10% FBS): 0%
% Growth Inhibition −Serum (SW1990; absence of serum): 10%
% Growth Inhibition +Serum (SW839; 10% FBS): 0%
% Growth Inhibition −Serum (SW839; absence of serum): 30%
% Growth Inhibition +Serum (ASPC-1; 10% FBS): 0%
% Growth Inhibition −Serum (ASPC-1; absence of serum): 0%
% Growth Inhibition +Serum (HT1376; 10% FBS): 0%
% Growth Inhibition −Serum (HT1376; absence of serum): 0%
% Growth Inhibition +Serum (CAPAN-2; 10% FBS): 0%
% Growth Inhibition −Serum (CAPAN-2; absence of serum): 0%
% Growth Inhibition +Serum (786-0; 10% FBS): 0%
% Growth Inhibition −Serum (786-0; absence of serum): 10%
